{
  "source": "patent US7144731B2",
  "about": "“SCF antibody compositions and methods of using the same” (Amgen Inc., priority 1989, dated 2006)",
  "key": {"[1]": {"test_system": "murine mast cell line, MC/9", "assay": "MC/9 ^3H-thymidine uptake assay", "type": "cell-based", "method": "Another useful biological activity of both naturally-derived and recombinant rat SCF is the ability to cause the proliferation of the […] murine mast cell line, MC/9 (ATCC CRL 8306). MC/9 cells are cultured with a source of […] according to the ATCC CRL 8306 protocol. The medium used in the bioassay is RPMI 1640, 4% fetal bovine serum, 5×10^−5M 2-mercaptoethanol, and 1× glutamine-pen-strep. The MC/9 cells proliferate in response to SCF without the requirement for other growth factors. This proliferation is measured by first culturing the cells for 24 h without growth factors, plating 5000 cells in each well of 96 well plates with test sample for 48 h, pulsing for 4 h with 0.5 uCi ^3H-thymidine (specific activity 20 Ci/mmol), harvesting the solution onto glass fiber filters, and then measuring specifically-bound radioactivity. This assay was used in the purification of mammalian cell derived rat SCF after the ACA 54 gel filtration step, section C2 of this Example. Typically, SCF caused a 4–10 fold increase in CPM over background."}, "[2]": {"test_system": "normal human bone marrow", "assay": "Human CFU-GM assay", "type": "cell-based"}, "[3]": {"test_system": "human bone marrow", "assay": "Human bone marrow colony assay", "type": "cell-based", "settings": "COS-1 CM, 20 U/ml EPO, 14 days, colonies ≥0.2 mm", "method": "The cDNA of human SCF corresponding to amino acids 1–162 obtained by PCR reactions outlined in Example 3D, was expressed in COS-1 cells as described for the rat SCF in Example 4. COS-1 supernatants were assayed on human bone marrow as well as in the murine HPP-CFC and MC/9 assays. […] The culture conditions of the assay were as follows: human bone marrow from healthy volunteers was centrifuged over Ficoll-Hypaque gradients (Pharmacia) and cultured in 2.1% methyl cellulose, 30% fetal calf serum, 6×10^−5 M 2-mercaptoethanol, 2 mM glutamine, ISCOVE'S medium (GIBCO), 20 U/ml EPO, and 1×10^5 cells/ml for 14 days in a humidified atmosphere containing 7% O2, 10% CO2, and 83% N2. Only those colonies of 0.2 mm in size or larger are indicated.\nRecombinant human SCF was tested in agar colony assays on human bone marrow in combination with other growth factors as described above."}, "[4]": {"test_system": "KG-1", "assay": "KG-1 soft agar cloning assay", "type": "cell-based, human", "settings": "COS-1 supernatant, 25 μl assayed; triplicate", "method": "Another activity of recombinant human SCF is the ability to cause proliferation in soft agar of the human acute myelogenous leukemia (AML) cell line, KG-1 (ATCC CCL 246). COS-1 supernatants from transfected cells were tested in a KG-1 agar cloning assay [Koeffler et al., Science, 200, 1153–1154 (1978)] essentially as described except cells were plated at 3000/ml."}, "[5]": {"test_system": "W/W^v mice", "assay": "Bone marrow transplantation model in W/W^v mice", "type": "in vivo, mouse", "method": "A. Rat SCF in Bone Marrow Transplanation COS-1 cells were transfected with V19.8 SCF^1-162 in a large scale experiment (T175 cm^2 flasks instead of 60 mm dishes) as described in Example 4. Approximately 270 ml of supernatant was harvested. This supernatant was chromatographed on wheat germ agglutinin-agarose and S-Sepharose essentially as described in Example 1. The recombinant SCF was evaluated in a bone marrow transplantation model based on murine W/W^v genetics. The W/W^v mouse has a stem cell defect which among other features results in a macrocytic anemia (large red cells) and allows for the transplantation of bone marrow from normal animals without the need for irradiation of the recipient animals [Russel, et al., Science, 144, 844–846 (1964)). […]\nIn the following example, each group contained six age matched mice. […] The blood profile of the recipient animals is followed at different times post transplantation and engraftment of the donor marrow is determined by the shift of the peripheral blood cells from recipient to donor phenotype. The conversion from recipient to donor phenotype is detected by monitoring the forward scatter profile (FASCAN, Becton Dickenson) of the red blood cells. […] An independent qualitative indicator of engraftment is the hemoglobin type detected by hemoglobin electrophoresis of the recipient blood [Wong, et al., Mol. and Cell. […]"}, "[6]": {"test_system": "5-FU treated mouse bone marrow cells", "assay": "HPP-CFC assay", "type": "cell-based", "settings": "COS-1 supernatant", "description": "There are a variety of biological activities which can be attributed to the natural mammalian rat SCF as well as the recombinant rat SCF protein. One such activity is its effect on early hematopoietic cells. This activity can be measured in a High Proliferative Potential Colony Forming Cell (HPP-CFC) assay [Zsebo, et al., supra (1988)]. To investigate the effects of factors on early hematopoietic cells, the HPP-CFC assay system utilizes mouse bone marrow derived from animals 2 days after 5-fluorouracil (5-FU) treatment. […] The rat SCF is plated in the presence of CSF-1 or IL-6 in semi-solid agar cultures. The agar cultures contain McCoys complete medium (GIBCO), 20% fetal bovine serum, 0.3% agar, and 2×10^5 bone marrow cells/ml. The McCoys complete medium contains the following components: 1× McCoys medium supplemented with 0.1 mM pyruvate, 0.24× essential amino acids, 0.24× non-essential amino acids, 0.027% sodium bicarbonate, 0.24× vitamins, 0.72 mM glutamine, 25 μg/ml L-serine, and 12 μg/ml L-asparagine. The bone marrow cells are obtained from Balb/c mice injected i.v. with 150 mg/kg 5-FU. The femurs are harvested 2 days post 5-FU treatment of the mice and bone marrow is flushed out. The red blood cells are lysed with red blood cell lysing reagent (Becton Dickenson) prior to plating. Test substances are plated with the above mixture in 30 mm dishes. Fourteen days later the colonies (>1 mm in diameter) which contain thousands of cells are scored. This assay was used throughout the purification of natural mammalian cell-derived rat SCF."}, "[7]": {"test_system": "irradiated dogs", "assay": "Canine DLA-identical littermate marrow transplantation", "type": "in vivo, dog", "settings": "920 cGy TBI + marrow", "description": "SCF alone enhances hematopoietic recovery following bone marrow transplantation. A variety of experimental variables have been tested in a canine model of bone marrow transplantation, Schuening et al., 76 636–640. In one set of experiments for the present invention, dogs received either G-CSF or SCF after 920 cGy of total body irradiation and 4×10^8 mononuclear marrow cells per kilogram from a DLA-identical littermate. The hematologic recovery, as measured by day of neutrophil recovery to 500 or 1000/mm^3, is accelerated when either SCF or G-CSF is administered compared to control animals that received no growth factor (Table 21). Recovery was 2–6 days earlier in animals that received SCF than it was in those that received no growth factor. As noted above, combinations of appropriate growth factors with SCF will accelerate and enhance the response to those growth factors following hematopoietic transplantation."}},
  "data": [
    {"molecule": "V19.8 rat SCF^1-162: recombinant rat SCF truncated at amino acid 162, supernatant of COS-1 or CHO cells transfected with V19.8 (protein) MKKTQTWIITCIYLQLLLFNPLVKTQEICRNPVTDNVKDITKLVANLPNDYMITLNYVAGMDVLPSHCWLRDMVTHLSVSLTTLLDKFSNISEGLSNYSIIDKLGKIVDDLVACMEENAPKNVKESLKKPETRNFTPEEFFSIFNRSIDAFKDFMVASDTSD", "values": [
      {"measurement": "cpm", "setting": "[1]; COS-1 supernatant, 3 μl CM assayed", "result": "9,638 cpm"},
      {"measurement": "cpm", "setting": "[1]; COS-1 supernatant, 6 μl CM assayed", "result": "11,482 cpm"},
      {"measurement": "cpm", "setting": "[1]; COS-1 supernatant, 12 μl CM assayed", "result": "11,322 cpm"},
      {"measurement": "cpm", "setting": "[1]; COS-1 supernatant, 25 μl CM assayed", "result": "11,648 cpm"},
      {"measurement": "cpm", "setting": "[1]; stable CHO cell supernatant, volume assayed 1.5", "result": "7,160 cpm"},
      {"measurement": "cpm", "setting": "[1]; stable CHO cell supernatant, volume assayed 3", "result": "14,714 cpm"},
      {"measurement": "cpm", "setting": "[1]; stable CHO cell supernatant, volume assayed 6", "result": "30,657 cpm"},
      {"measurement": "cpm", "setting": "[1]; stable CHO cell supernatant, volume assayed 12", "result": "34,973 cpm"},
      {"measurement": "cpm", "setting": "[1]; stable CHO cell supernatant, volume assayed 25", "result": "33,926 cpm"},
      {"measurement": "synergistic activity in CFU-GM assay", "setting": "[2]", "result": "synergized with human GM-CSF, human IL-3, and human CSF-1"},
      {"measurement": "Colony #/100,000 cells (±SEM)", "setting": "[2]; average of triplicate cultures, SCF = COS-1 supernatant 4 days after transfection", "result": 0},
      {"measurement": "Colony #/100,000 cells ± SD", "setting": "[3]; 50 μl assayed", "result": 10},
      {"measurement": "Colony #/100,000 cells ± SD", "setting": "[3]; 100 μl assayed", "result": "13 ± 1"},
      {"measurement": "Colony #/3000 Cells ± SD", "setting": "[4]", "result": "6 ± 1"},
      {"measurement": "time to conversion to donor phenotype", "setting": "[5]; SCF pre-treated group (600 U/ml, 37° C., 20 min)", "result": "≤ 29", "unit": "days post-transplantation"},
      {"measurement": "engraftment of donor marrow vs untreated control", "setting": "[5]; cells pre-treated with 600 U/ml or recipients ~400 U/day sub-Q for 3 days", "result": "engrafted faster"},
      {"measurement": "Colony #/200,000 cells", "setting": "[6]; 3 μl CM assayed", "result": 8},
      {"measurement": "Colony #/200,000 cells", "setting": "[6]; 6 μl CM assayed", "result": 30},
      {"measurement": "Colony #/200,000 cells", "setting": "[6]; 12 μl CM assayed", "result": ">50"},
      {"measurement": "Colony #/200,000 cells", "setting": "[6]; 25 μl CM assayed", "result": ">50"},
      {"measurement": "Colony #/200,000 cells", "setting": "[6]; 50 μl CM assayed", "result": ">50"},
      {"measurement": "Colony #/200,000 cells", "setting": "[6]; 100 μl CM assayed", "result": ">50"}
    ]},
    {"molecule": "rcG-CSF: recombinant canine G-CSF (protein, UniProt P35834 1-175, looked up) Granulocyte …: MAPLGPTGPLPQSFLLKCLEQMRKVQADGTALQETLCATHQLCHPEELVLLGHALGIPQPPLSSCSSQALQLMGCLRQLHSGLFLYQGLLQALAGISPELAPTLDTLQLDTTDFAINIWQQMEDLGMAPAVPPTQGTMPAFTSAFQRRAGGVLVASNLQSFLELAYRALRHFAKP", "values": [
      {"measurement": "Recovery of ANC > 1000/mm^3", "setting": "[7]; 10 days treatment following transplant", "result": "Day 8"},
      {"measurement": "Recovery of ANC > 500 mm^3", "setting": "[7]; 10 days treatment following transplant (rcSCF 200, rcG-CSF 10 μg/kg/day SC)", "result": "Day 7"}
    ]}
  ]
}
